B1: TPR t1 (parent)
chain: GACCAAUCUGCCCUCAGAGCUCGAGAACAUCUUCGGAUGCAGAGGAGGCAGGCUUCGGUGGCGCGAUAGCGCCAACGUCCUCAACCUCCAAUGCAUCCCACCACAUGAUGAUGCCUGAAGAGCCUUGGUUUUUUG

Variants of: B1
Assay: polymerase ribozyme fitness, log enrichment relative to wild type (log ratio); higher = more active; in vitro selection for triplet polymerase activity
In short: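 Mutant libraries were PCR-built and transcribed for each subunit of a heterodimeric triplet polymerase ribozyme and selected for one round in triplicate at −7 °C, frozen, before gel excision of extended constructs and streptavidin-bead capture. Input and output libraries were Illumina-sequenced, keeping genotypes with ≥10 input reads and ≥1 read per output. Fitness is a logarithmic ratio of genotype to wild-type enrichment, in base 2, using inverse-variance-weighted replicate averages.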

Variant	polymerase ribozyme fitness (log ratio)
C79G A83G G117C	-5.42
U9G G42C G45A C85G	-4.6
A46C U87A G93C C115A U116C A119C	-3.74
U38A C73G C101A A119U A121U G122U	-2.99
C11A G51C	-4.99
C4G G63A U106G A118G C123G	-2.77
A2C C12G	-1.09
C88U A105G C123U	-1.46
U7A A16C C115A	-2.49
C8A C62U A74U	0.227
A43U C73G	-2.69
C98A C104U	-4.88
C34G U59A G117U U129G	-8.01
A18C C20A G93A G113A C124U U126G	-4.14
C12A G48U C98U	-2.11
C22G C34U G60U C94A C97U C98G G113U	-6.85
C34A C82U C97G	-3.48
A50G U54C G63U C88U U130G	-2.9
G42A G77A	-2.61
C20U C64U C114U A118G U131A	-0.511
C13U C40U C124U G135C	0.605
G17A C53A A90G A95U	-3.77
G58C A83U C85A U112G U129G	-0.79
A6U C13A C22G A75U	-4.17

Variant	polymerase ribozyme fitness (log ratio)
A16C C89U U106A	-2.64
A26U C62G C124A	-3.42
C72A C82A C97G C114G	-5.93
G17U A37C C53A A83U A90U A91C	-3.91
A6U A29U G61A C115G G117U	-4.58
C8U C40U G51C G120C	-1.98
G48C A75G	-0.575
C40U A90G C102G	-4.16
A2G G71U	-0.153
A46C G71C	-1.14
G63U C102A	-3.78
A41C A90C C123G G128C	-2.07
A43G U54G C89G C94G	-3.3
A6U U9C U55C A75G A95C G110A	-1.37
C4A G52C	-2.41
U9A G63U	-0.179
C11G C13U C56U G69A G77C C101A	-5.25
G48U C53U U92C A100U C101U C124A U131G	-2.57
U55C C70U C85A	-2.03
G17U U38G G45A C88U C101U	-2.92
G10A A29U C72A C88G U116G	-3.97
C88U A100U G120A	-0.615
A6U C13G C56U G77C	-1.6
A46C C76A C86U C104U	-0.577

Variant	polymerase ribozyme fitness (log ratio)
G61U C98U	-1.55
A46U G77C C115U G122A U130C	-4.76
C13A A50G G71A	-2.13
C49U C53A A111C	-0.429
A50U A74G	-1.27
G10A C13U U38G C56U C82G	-1.27
C8G C73A G120C	2.29
G48A C73U C82G	-0.747
C4A G48U G61C C89U A121G	-1.77
U55G C56A	-0.837
G10A C70U A121U	1.19
G60A U92A C104U U133A	-2.74
C56U C72U U112G G117U C124U	-2.21
U21G A24G	-2.02
U9C C53U A83C	0.688
C15A G60U	-2.01
C53U C86G	-0.977
U9C C12A C86A C102A C104U C124A	-0.301
A18C G71C	-4.19
C34A U54G C94U	-2.75
G93U C98U G120C	-3.66
C86A U132C U133A	-1.36
G17A G69C	-3.95
G93A	-0.498

Variant	polymerase ribozyme fitness (log ratio)
U33G G39U A50U C70U A84U A91C C114A	-7.12
A5G G10U C72G C86U C97U C114A	-3.98
C40A C56A C73U A84C	-2.23
A16U C73A	-2.64
C70U G117C	-4.24
C3A G42U G48U G52U C64U C86U G113U U133G	-7.08
C89A G128C	-4.25
C56U A95C	-1.26
U33C G60C	-5.53
G48U C72A G113C	-2.2
C11U C85G	-2.37
C13G C80A C82G U130C	-4.35
G17A U54C G120U	-1.75
G45C A50U	-2.42
A26G C70U C94G A103G G117C	-7.12
G44C C114A	-2.01
U9G C28U C56A C114U A118U U125G U132A	-5.4
C82A G93A	-0.17
G63U C85U U130A	-2.02
U7A C104G	-6.47
A43G G61A G65U	-5.48
A18C A95U C124A	-0.947
U59G C101U U131G U133A	-0.675
C28U G47C C73A C97U	-3.8

Variant	polymerase ribozyme fitness (log ratio)
A27U G57C C89G G120A U131A	-4.12
C70A G113U	-2.82
G61U U81A	-0.596
A41C A74G C98U	-1.89
C8G A75G C88A C124U	1.57
C98U G110C	-4.91
C11G G36A	0.396
C13G G36U A37G C80U	-5.7
A6U C40G G42C C76A C94U U112C G122A	-2.22
C104U C115A	0.0102
C34A U55G G77A	-4.67
A5U C102U G122A	-3.47
G69A C73G G120U	-5.64
C13U U14C G69U C70U A90G	-2.94
G42A U54G A103G U109A G117C	-6.58
C22U U131A	-3.95
A41C C73G C85A A118U	-3.17
G63U U78C A108G	-6.17
C53U C72U C79A C85U C88U	-2.53
C12G C62U U116A	-2.68
G17U G63A U81A G110C	-6.98
G71U G135C	0.388
A37U G69U U125C	-3.4
A43U C49U G61A G113C C123U	-3.66

Variant	polymerase ribozyme fitness (log ratio)
C49G G57U G63A A119G U133G	-0.878
C8G U9G C22G	-3.24
G36U	-1.06
U9G G10C C11A C89U A103U U109A	-5.83
U14A	-1.85
C8U G36U U78C C88G C101A	-3.59
C15G C56G U87G U112G G113A C123G G135A	-3.08
C22G G36C	-3.09
C8A G60U	-0.464
C12U C40U A90G	0.0487
C73A C102G	-5.02
C89A G113C	-1.8
G44A A46G G52A C123A	-1.71
A16G G48A U126G	-4.19
G10A G45A G63U C82A C85A U92C	-5.42
C3A U78A	-1.96
G47U U54A G120A	-0.309
C11U C20G U96G C123U	-2.94
U92A C104U	-3.56
A46C U96G C104U U131C	-1.75
A16G G77A C85G	-3.69
A16U G60C	-2.17
A18C G47A A121U	-1.35
G36U U96A	-2.69

Variant	polymerase ribozyme fitness (log ratio)
C56A C72U G110A G122U	-2.87
A95G G117C	-3.87
G10A A95U G122A	0.0165
A27C G61C	-5.63
G45U G63U	-2.05
A6C A18C G60U C82G G127U	-5.44
C56A C104A A105U G110A	-7.24
A27G A41U G48A C88A	-5.84
C11G G52A U54A C98A	-5.44
G10U C13U G61U	-0.215
C31G G69U A111C U112A G117A	-6.69
A2G G36C G48U G52U U59G C79G U112C	0.109
A41U A66G G71C U78A	-5.05
C86A U116G	-2.89
G63U G93U	-1.76
U33G U55A	-4.84
A18U G61C G120A	-4.67
A37U C73G	-1.27
C12A U54A G113C U125G	-3.66
G44U G93U G117A	-3.24
G52A C70U	-0.605
U112A U130G	-0.266
C4A U130G	-1.85

From the RNAGym collection of RNA variant scans (doi:10.1073/pnas.2313332121)
